Measurements as given in paper PMC12409433.

Tests used:
[1] = target: Klebsiella pneumoniae N-acetylglucosamine-6-phosphate deacetylase (NagA) (Klebsiella pneumoniae); test: SEC-MALS; Superdex 200 Increase 10/300 GL, 0.5 ml/min, 20°C, DAWN-Treos detector; BSA for calibration
[2] = target: Klebsiella pneumoniae N-acetylglucosamine-6-phosphate deacetylase (NagA) (Klebsiella pneumoniae); test: SEC; Superdex 200 Increase 10/300 GL, 20 mM Tris-HCl pH 8.0, 150 mM NaCl; apparent mass by calibration with molecular weight standards

For “Klebsiella pneumoniae N-acetylglucosamine-6-phosphate deacetylase (NagA) (enzyme)”, the stoichiometry N [1] was 4 and the stoichiometry N [2] was 4.
